Measurements taken from US20160058827A1.

Molecular target: MUC1 C-terminal subunit (MUC1-C) (human) (UniProt P15941)
Test: cell-based or functional assay

MUC1 C-terminal subunit (MUC1-C) (human), sequence (P15941 1097-1255): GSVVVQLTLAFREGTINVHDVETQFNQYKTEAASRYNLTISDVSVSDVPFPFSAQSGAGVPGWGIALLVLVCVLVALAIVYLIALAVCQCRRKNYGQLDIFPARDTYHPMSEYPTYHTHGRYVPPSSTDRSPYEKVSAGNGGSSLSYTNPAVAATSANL

## GO-203 (peptide)
  half-maximal inhibitory concentration for GO-203 (BT-474/CshRNA cell growth): 3.9 µM
